From the DeepSol protein solubility set come the findings set out here.

This data set in a line: soluble on expression in E. coli; label from the status in PepcDB or PDB records.
“RHMELSPDGNLKTTITIGDRLTYDITCNGRQILTPSPISMTLDNGTVWGENAKLSGTSRKSVDEMIPSPFYRASELRNHYNGLTLRFKKDWNVEFRAYNDGIAYRFVNQGKKPFRVVTEVSDYCFPSDMTASVPYVKSGKDGDYNSQFFNSFENTYTTDKLSKLNKQRLMFLPLVVDAGDGVKVCITESDLENYPGLYLSASEGANRLSSMHAPYPKRTVQGGHNQLQMLVKEHEDYIAKVDKPRNFPWRIAVVTTTDKDLAATNLSYLLGAPSRMSDLSWIKPGKVAWDWWNDWNLDGVDFVTGVNNPTYKAYIDFASANGIEYVILDEGWAVNLQADLMQVVKEIDLKELVDYAASKNVGIILWAGYHAFERDMENVCRHYAEMGVKGFKVDFMDRDDQEMTAFNYRAAEMCAKYKLILDLHGTHKPAGLNRTYPNVLNFEGVNGLEQMKWSSPSVDQVKYDVMIPFIRQVSGPMDYTQGAMRNASKGNYYPCYSEPMSQGTRCRQLALYVVFESPFNMLCDTPSNYMREPESTAFIAEIPTVWDESIVLDGKMGEYIVTARRKGDVWYVGGITDWSARDIEVDCSFLGDKSYHATLFKDGVNAHRAGRDYKCESFPIKKDGKLKVHLAPGGGFALKIK”: the “soluble on expression in E. coli” value is “soluble”.

Turning to “MNNLYRDLAPVTEAAWAEIELEAARTFKRHIAGRRVVDVSDPGGPVTAAVSTGRLIDVKAPTNGVIAHLRASKPLVRLRVPFTLSRNEIDDVERGSKDSDWEPVKEAAKKLAFVEDRTIFEGYSAASIEGIRSASSNPALTLPEDPREIPDVISQALSELRLAGVDGPYSVLLSADVYTKVSETSDHGYPIREHLNRLVDGDIIWAPAIDGAFVLTTRGGDFDLQLGTDVAIGYASHDTDTVRLYLQETLTFLCYTAEASVALSH”, the “soluble on expression in E. coli” value is “not soluble”. Take “GSSGSSGMKQATRKPTTPGDILLYEYLEPLDLKINELAELLHVHRNSVSALINNNRKLTTEMAFRLAKVFDTTVDFWLNLQAAVDLWEVENNMRTQEELGRIETVAEYLARREERAKKVA”: the “soluble on expression in E. coli” value is “soluble”. As to “MADRRRTDDNKGAREVVLLLNIGSPDSPEEKDVARYLNSFLTDRRIITLPFLLRQLLVRGIITPFRKKSSAQKYRTVWDESTRSFPLISHTKAIARALAHTGREVHVAMRYGKPAVADVLKELPHGRSLVVLPLFPHYAMSSYETAVEHCKAEIRRLCPNLSFRVVQPFYAHEAYIRVLADNIRPYLTKPFDKLILSYHGIPRDHLDKTTRQALNLRHPEGCCTEEDPTANVCYRYQTYRTTALIREALGLAEEQVEQVFQSRVGHTEWLRPYLIERLSAWPQEETKRILIACPSFVCDCLESLEEVADHGQSIFKKAGGADFTYIPCLNSGANWIDALRNILEE”, the “soluble on expression in E. coli” value is “not soluble”.

In the case of “MAHHHHHHMFKFVSSIGDAAYKAASKTGLAAGSEQPPYPCALPLQVIEDCEDTETTERVLNDTYAAVRDLLSDDLPLLHSTISDVQAHKPFKLVDFTDREGDIRLFTRPHVGSYNFARVTLTLDNVSPAKVLTFMHAQSLEARNRYSSNLCQYDVIARNPELPAQYIGNDNDHLEELCRMGIRDWHVEYNRYSAPPPVTARDFVYLVEKRYAPEQRCYYIYGTSVDYRDTAGIAIEKDNCVRGAVVFGWRFQHVGRKTYCTYVSCMSPNGWAPTFIVGWMKTAIAKELQNARRVLYQDVPSCHAAGASSEYAKGALAAYDAPITSCRQNKPTRDHSSSKSSAQKLGNAMEHEERRLLEDEKPIVFE”, the “soluble on expression in E. coli” value is on record as “soluble”. For the sequence “VTPQYQATSTIYVLGNSVSMSGVDLTLSKQLTADFSVLAKSRPVMNKIEEKLKADYKYKDLNYSVEQLQGMITIENPSGTSLMRMTATNSDAQLAADIANAAADAVAERISEVMVIDKPSSVEEAEKPNYPVSPNVKKNM”, the “soluble on expression in E. coli” value is listed as “not soluble”.

For “MMWIPYNQGFHAGPKCLTVVFIYLLNMKVLRHIYRFLMELYGPQGWWPLLDRDTMTLRYHPGDYTPPSDDGDVFEVITGSILTQNTSWDSAASALRNLAAMDALKPHRILSLDDAELEAAIRCAGFYRQKVSYLREMAGFFISLEGSTPSRKELLKVRGVGPETADSVLLYAYRKPEFVVDAYTRRILTHLGLIAGDESYHRIKELFERSLEPDFRVFQEYHALIVRHGKSYYRGRVHGDGDPLTEKLEHHHHHH”, the “soluble on expression in E. coli” value is “not soluble”. To “SHMSLTPDQIVAALQERGWQAEIVTEFSLLNEMVDVDPQGILKCVDGRGSDNTQFCGPKMPGGIYAIAHNRGVTTLEGLKQITKEVASKGHVPSVHGDHSSDMLGCGFFKLWVTGRFDDMGYPRPQFDADQGAKAVENAGGVIEMHHGSHAEKVVYINLVENKTLEPDEDDQRFIVDGWAAGKFGLDVPKFLIAAAATVEMLGGPKKAKIVIP” belongs “soluble”; to “MKFGWIKTTGNDLEERMESVKDALESSIPGIIAEKEEISSVRELGNIKIVSDNLDADVVLINKGEDLEILKSAKLSGKETGVYVVINTKEDEVYATDVSKLDFVDYVVLEGSDWTIIPLENIIADLFSEEIKIVSVVTNVKDAEAAYEILEKGVDGVVLIPKDINEVKDFSKLIERMNSESVKLDYATVTKIEPVGSGDRVCIDTCSMMEMGEGMLIGSYSRGMFLVHSETVENPYVATRPFRVNAGPVHAYILCPENKTKYLSDLKAGDKVLVVNKNGETREAIIGRVKIEKRPLFLVEAEYNGENLRTILQNAETIRLVGEDGKPVSVVDLKVGTKVLIKPDENARHFGMAIKETIIEKLEHHHHHH”, “soluble”. With “MNAPIEPHRFILEPFEAHRFANLCGQFDEHLRLIEQRLAIEIRNRGNQFELIGEPRTTSAAEQLLRRLYRETKATDLSPETVHLYLQESAVENIDNPAVNEVSVSLRTRKGNIRPRGLNQQRYVKEILANDINFGIGPAGTGKTYLAVACAVDALEREQVRRILLVRPAVEAGEKLGFLPGDLAQKIDPYLRPLYDALYEMLGFEHVAKLIERQVIEIAPLAYMRGRTLNNSFIILDESQNTTLEQMKMFLTRIGFGSTAVITGDITQVDLPRGTKSGLAHVIEVLKDVPGISFTHFQPKDVVRHPLVQRIVEAYDRFEARQPKPEASGKDA”, the “soluble on expression in E. coli” value was “not soluble”. Take “MGSDKIHHHHHHMNILFINSIGRNKFGGGEKWMVNAAKGLTDRGHNVVLASKRNSRLLDYAAGSGVRTEVMEIRGDFSPLATLKIAAWMKRHQTDILICNLNKDVRVAGLAARLVGRPVVLARHGMLLCSKKWKHKLSLTRLTDGIVTNSRTIREAYAGYGWFSENFVKVIYNGLTIPAEVTAFDFASRYPGKKIIYSAGRLSKQKGFEYLIDAAAMLKRKRDDLLFAISGEGKLEIELKNRVAALGLKGSFVFLGFTPDIYPFLKGCDLFVLASLFEGMPNVVMEAMAMQKPVIATDVNGARELMGASPESLVCDTGLIIPPKNPAAIAEAIEQIIDNPALLEAYGKAGHQRVETHFTVPIMIDNLEKHLQSKLAEKAGRC”: the “soluble on expression in E. coli” value is given as “not soluble”. As to “MCIMCELKNFRRNITCFEGYDENSFIGKWYDDGVWDDEEYWKLENDLIEVRKKYPYPMDIPRYVVIGIGTIIDFLMVPNWKLFEIKASPWLPDSVGINERYERLKTMLRYIFTEKDIVNVQFDYYNKK”, the “soluble on expression in E. coli” value is “not soluble”. For “METVQLRNPPRRQLKKLDEDSLTKQPEEVFDVLEKLGEGSYGSVYKAIHKETGQIVAIKQVPVESDLQEIIKEISIMQQCDSPHVVKYYGSYFKNTDLWIVMEYCGAGSVSDIIRLRNKTLTEDEIATILQSTLKGLEYLHFMRKIHRDIKAGNILLNTEGHAKLADFGVAGQLTDTMAKRNTVIGTPFWMAPEVIQEIGYNCVADIWSLGITAIEMAEGKPPYADIHPMRAIFMIPTNPPPTFRKPELWSDNFTDFVKQCLVKSPEQRATATQLLQHPFVRSAKGVSILRDLINEAMDVKLKRQESQQREMDQDDEENSEEDEMDSGTMVRAVGDEMGTVRVASTMTDGANTMIEHDDTLPSQLGTMVINAEDEEEEG”, the “soluble on expression in E. coli” value is “soluble”.

With “MSLASYLDFEKNIQQIDEDIINAQIKGDTEAVSILKKNLEKEISKTYKNLSDFQRLQLARHPDRPYALDYIELILNDAHEIHGDRAFRDDPAIVCFMGYLGEKKIIVIGEQKGRGTKDKIARNFGMPHPEGYRKALRVAGLAEKFQIPILFLIDTPGAYPGIGAEERGQSEAIARNLYELSDLKIPTIAIVIGEGGSGGALAIGVADKLAMMKNSVFSVISPEGCAAILWNDPAKSEAATKAMKVTADDLKSQGLIDDVIDEPTNGAHRNKEAAAVAIADYVKKSLNELENIDVRELSANRMQKILKLGAYQEAEGHHHHHH”, the “soluble on expression in E. coli” value was “soluble”.
